Consider one molecule from patent US20230357354A1, “CD38-BINDING CD31 PEPTIDES AND USES THEREOF” (ENCEFA, priority 2020, published 2023).

The target of assay [1] is recombinant human CD38 (Acrobio, ref CD8-H5224) (human), P28907. In words: SPR, Biacore 3000, CM5 chip, recombinant human CD38. (In general: SPR reads the build-up and loss of mass on a sensor chip optically.)
The target of assay [2] is human CD38 on cells (Daudi cells; CD38^+ Jurkat T cells) (human), P28907. In words: cell-based or functional assay.

A word on the Kd: it is the free concentration of one partner at which half of the binding sites on the other are occupied at equilibrium, for simple one-to-one binding. Take CMVKLKREKNPGDQNFVILEFC (modifications not checked) [β-sheet-like folded peptide … (SEQ ID NO: 10), free peptide]: in assay [1], the Kd was 8.8 nM. Further, the EC50, glucose uptake (2-NBDG fluorescence), human Daudi cells in assay [2] turned out to be 0.002 nM.
